Tests used:
[1] = target: T1, RSV F ectodomain stabilized in the postfusion conformation (F ΔFP), subtype B (respiratory syncytial virus subtype B, UniProt P13843 26-109; P13843 147-524); experiment: BLI (Octet), IgG on AHQ sensor, 100 nM antigen
T1 construct: extracellular domain; Trimer; also called Postfusion subtype B

[2] = target: T2, RSV F protein of subtype A (strain A2) on recombinant mKate-RSV (respiratory syncytial virus subtype A …, UniProt P03420 26-574); experiment: cell-based or functional assay
[3] = target: RSV F protein of subtype B (18537) on recombinant mKate-RSV (respiratory syncytial virus subtype B …, UniProt P13843 26-574); experiment: cell-based or functional assay
[4] = target: T2, RSV F protein of subtype A (strain A2) …; experiment: cell-based or functional assay; remark: listed apart in the source
[5] = target: human metapneumovirus (HMPV) F protein on GFP-expressing hMPV recombinant virus (NL/1/00, A1 sublineage) (human metapneumovirus); experiment: cell-based or functional assay
[6] = target: T3, RSV F ectodomain stabilized in the postfusion conformation (F ΔFP), subtype A (respiratory syncytial virus subtype A, UniProt P03420 26-109; P03420 147-524); experiment: BLI (Octet), IgG on AHQ sensor, 100 nM antigen
T3 construct: extracellular domain; Trimer; also called Postfusion subtype A

Binder | Kd [1] [nM] | Neut IC50 subtype A [2] [µg/mL] | Neut IC50 subtype B [3] [µg/mL] | RSV-A2 IC50 [4] [µg/mL] | HMPV-A1 IC50 [5] [µg/mL] | Kd [6] [nM]
ADI-18992 (antibody, V domains shown, full-length IgG; also called Antibody Number 340) VH: QVQLVQSGAEVKKPGASVKVSCKASGYIFTGYFIHWVRQAPGQGLEWMGVINPRGGSTSYAQKFQGRVAVSRDTSTTTVYMELNSLRSEDTAVYYCARAPSHDEWVAISRNNDVVGFDAWGQGTLVTVSS VL: QSVLTQPPSVSGAPGQRVTISCTGGSSNIGADYDVHWYQQPPGTAPKLLIFANNNRPSGVPGRFSGSKSGTSASLAITGLQAEDEADYYCQSYDSSLSAWVFGGGTKLTVL | 0.907 | 2.55 | 5.69 | 2.5 | 6.1 | –
ADI-18995 (antibody, V domains shown, full-length IgG; also called Antibody Number 343) VH: EVQLVESGPGLVKPSETLSLSCIVSGGSITSGDYYWSWLRQSPGKGLEWIGYIYHSGATFYTPSLRSRVTISTDTSKNQFSLRLSSVTAADTAVYYCASGPVGMATSNWFDPWGQGTLVTVSS VL: SYELTQPPSVSVAPGKTATITCGGDIIRTNSVNWYQQKPGQAPLLLIYYDSDRPSGIPERFSASNSGNTATLTISRVEAGDEADYYCQVWDSGTDYHVVFGGGTKLTVQ | – | 0.043 | 0.125 | – | – | 12.3
ADI-18981 (antibody, V domains shown, full-length IgG; also called Antibody Number 329) VH: EVQLQESGSRLVKPSQTLSLTCSVSGGSLNAGGYLWSWIRQPPGKGLEWVGYIYPSGTTYYNPSLQSRISISQDRSRNQFSLSVASVTAADTAVYYCARCGNEYGEVHPFDIWGQGTTVTVSS VL: EIVLTQSPGTLSLSPGERATLSCRGSPIVGNNYLAWYQQKPGQAPRLLIYAASIRATGIPDRFSGSGSGTDFTLTISRLEPEDFAVYYCQQYGSSPWTFGQGTKVDIK | 0.28 | > 10 | > 10 | – | – | –
ADI-19001 (antibody, V domains shown, full-length IgG; also called Antibody Number 349) VH: EVQLVESGGGLVKPGRSLRLSCTASGFNFGDYAMSWFRQAPGKGLEWVGFIRSKTYRETREYAASVKGRFTMSRDDFNRIAYLQMNSLKTEDTAMYYCTRQDDFWSGHPYYFEYWGQGTLVTVSS VL: QPVLTQPPSASGSPGQSVTISCTGTNSDVGSYNYVSWYQHHPGKAPKLIIYDVAKRPSGVPDRFSGSKSGNTASLTVSGLQAEDEADYYCSSYAGSNDLGVFGTGTKLTVL | 0.149 | > 10 | 3.26 | – | – | –
ADI-19014 (antibody, V domains shown, full-length IgG; also called Antibody Number 362) VH: EVQLVESGPRLVKPSQTLSLTCTVYGGSISGGQNYYSWVRQPPGKGLEWIGYIFSSGTTYYKPSLKSRISISFDTSKNQFSLNLASVTAADTAVYFCARSADIDIVWGSSLYMPLWGQGTLVTVSS VL: EIVLTQSPGTLSLSPGQRATLSCRATHIVSNSYLAWYQQKPGQAPRLLIHGVSIRATGIPDRFSGSGSGTDFTLTISRLEPEDFAVYFCQQYGTSPWTFGQGTKLEIK | 0.277 | 1.75 | > 10 | – | – | –
ADI-18984 (antibody, V domains shown, full-length IgG) VH: QVQLQESGPGLVKPSETLSLTCTVSGASVTTNTYYWTWIRQPPGKELEWIGYIHHTGNTHYNPSLESRLTMSLDTSRNQFSLNLRSATTADTAVYYCARGEHFAYWWGNWGQGALVTVSS VL: DIRVTQSPSSVSASVGDRVTITCRASQGIARWLAWYQQKPGKAPKLLIYAASSLQGGVPSRFSGSGYGTDFTLTISSLQPEDFATYYCQQANSFPRTFGQGTKVEIK | 0.659 | > 10 | > 10 | – | – | –
ADI-19013 (antibody, V domains shown, full-length IgG; also called Antibody Number 361) VH: QVQLVQSGAEVKKPGESLKISCKGSGYSFSSYWIGWVRQMPGKGLEWMGIIYPGDSDTRYSPSLQGQVTISGDKSISTAFLQWSSLKASDTAMYYCARPMTTQEGFDLWGQGTMVTVSS VL: DIRLTQSPSSVSASVGDRVTITCRASQGISDWLAWYQQKPGKAPKLLIYAASSLQSGVPSRFSGSGSGTDFTLTISSLQPEDFATYYCQQTNSFLPLTFGGGTKVDIK | 0.583 | 9.5 | > 10 | – | – | –
ADI-18990 (antibody, V domains shown, full-length IgG) VH: QVQLQESGPGRVKPSQTLSLTCTVSGVSVTINDYYWTWLRQSPGKGLEWIGNIYNSGSTYQNPSLQSRVTMSVDTAKNHFSLKLTSVTAADTAVYYCARDLGTANNYYFGMDVWGLGTTVTVSS VL: DIVLTQSPATLSLSPGERATLSCRASQSVSTYLAWYQQKPGQAPRLLIYNGSNRVTGTPARFSGSGSGTDFTLTISSVEPEDFAVYYCQQRSNWPPYTFGQGTKVEIK | 0.252 | 0.58 | 0.845 | – | – | 0.294
ADI-19007 (antibody, V domains shown, full-length IgG) VH: QVQLVQSGGGLVQPGGSLRLSCAASGFTFSQSPMSWVRQAPGKGLEWVSGISTGGTNTYYADSVKGRFTISRDNSKNTLYLQMTSLRVGDTAVYYCAKESLDFGSGSYNWFDTWGQGTLVTVSS VL: not shown | 0.457 | 0.208 | 0.37 | – | – | 0.969
ADI-18982 (antibody, V domains shown, full-length IgG; also called Antibody Number 330) VH: QVQLVQSGAEVKKPGASVKVSCKASGYIFTSYGVSWVRQAPGQGLKWMGWISGYNGNTNYDQKLQGRVTMTTDTSTSTAYMELRSLTSDDTAVYYCARDSFSETGTGFPDFWGQGTLVTVSS VL: DIQMTQSPLSLPVTLGQPASISCRSSQSLEYSDGNTYLNWFQQRPGQSPRRLIYKVSNRDSGVPDRFSGSGSGTDFTLKISRVEAEDVGVYYCMQATHRPRTFGQGTKLEIK | 0.747 | 0.018 | 0.053 | – | – | 0.765
ADI-18998 (antibody, V domains shown, full-length IgG; also called Antibody Number 346) VH: EVQLLESGPGLVKPSQTLSLTCTVSGGSINSIDYYWSWIRQPPGKGLEWIGYIYHSGSTHYRPSLKSRVTISLDKAKNEFSLSLTSVTAADTAVYFCASGPVGMATSNWFDPWGQGTLVTVSS VL: QPVLTQPPSVSVTPGETARLPCEGDIVVTNSVHWYQQKPGQAPVLVVYYDSDRASGIPERFSGSNSGNTATLSISRVEAGDEADYYCQVWDSSTDHHVVFGGGTKLTVL | – | 0.055 | 0.458 | – | – | 12.4
ADI-18980 (antibody, V domains shown, full-length IgG; also called Antibody Number 328) VH: QVQLVQSGAEVKKPGESLKISCKGFGYSFNSYWIAWVRQMPGKGLECMGIIYPGDSDTRYSPSFQGQVTISVDKSITTAYLQWSSLKVSDTAMYYCAKSNVGNTGWNYWGQGTLVTVSS VL: EIVLTQSPATLSLSPGERATLSCRASHSVATDLAWYQQKPGQAPRLLIYDASKRATDVPARFSGSGSGTDFTLTISSLEPEDVAVYYCQEVRNWPPCTFGQGTKVDIK | 0.35 | 3.6 | > 10 | – | – | –
ADI-19012 (antibody, V domains shown, full-length IgG; also called Antibody Number 360) VH: EVQLVESGPGLVKPSGTLSLTCAVSGDSIVGSDWWSWIRQPPGKGLEWIGDIYHGGTTSYNPSLKSRVTMSVDKSKNQFSLKLTSVTAADTAVYYCARLSGNCSGGSCYSPFDHWGQGTLVTVSS VL: DIQMTQSPSSLSASVGDRVTITCRASQTINGYLNWYQQRPGKAPKLLISAASSLQSGVPSRFRGSGYGTDFTLTISSLQPEDFATYFCQQSYNTVYTFGQGTKVDIK | 0.314 | > 10 | > 10 | – | – | –
ADI-18989 (antibody, V domains shown, full-length IgG) VH: EVQLVESGGGLVQPGGSLRLSCAASGFSFNTYSMNWVRQAPGKGLEWLSFISSSSHTLYYADSVKGRFTVFRDNAKHSLFLQMNGLRDEDTAVYFCARSLGSGNYDNEDQTFYYYYGMDVWGQGTTVTVSS VL: ETTLTQSPLSLPVTPGEPASISCRSSQSLLFHSNGHNYLDWYLQKPGQSPQLLIHLGSNRASGVPDRFSGSGSGTDFTLKISRVEPEDVGVYYCMQALQTPYTFGQGTKVEIK | 0.377 | > 10 | > 10 | – | – | –
ADI-19000 (antibody, V domains shown, full-length IgG; also called Antibody Number 348) VH: EVQLVESGAEVKKPGASVKVSCKASGYTFTTYDINWVRQATGRGLEWMGWMTPDSGSTGYPQNFQGRVTMTRNTSISTAYMELSNLRSEDTAVYYCVQMDHCRSTSCSEGNWFDTWGQGTLVTVSS VL: QPGLTQPPSVSAAPRQRVTISCSGSSSNIGTNAVNWYQQLPGKAPKLLIYSDNLMPSGVSARFSGSKSGTSASLAISGLQSEDEADYYCAAWDDSLNVWVFGGGTKLTVL | 0.128 | 0.037 | 0.129 | – | – | 0.175
ADI-18999 (antibody, V domains shown, full-length IgG) VH: QVQLVQSGAEVKKPGSSVKVSCKASGGRFSSDAISWVRQAPGQGLEWMGGIIPIRGTPTYAQKFQGRVTIIADESTTTSYMEMSSLRSEDTAVYYCARPNYDILTGYNDAFDIWGQGTMVTVSS VL: QSVLTQPRSVSGSPGQSVTISCTGTSSDVGGYNYVSWYQQHPGKVPRLMIYDVSKRPSGAPDRFSGSKSGNTASLTISGLQAEDEADYYCCSYAGGLYVFGTGTKLTVL | 0.141 | 1.8 | 6.46 | – | – | 0.167

Reference: patent publication US20200223906A1 (Adimab, published 2020)
